This note sets out measurements from patent US20180009867A1.

This assay deals with IL-1 receptor. The experiment in a line: SPR, immobilized IL-1 receptor. Background: Surface plasmon resonance follows binding to a sensor surface in real time, without labels.
Substance “mutant chicken interleukin-1β protein having E118K mutation (ligand)” displayed a Kd of 0.37 nM.

As for “mutant chicken interleukin-1β protein having T117A mutation (ligand)”, the dissociation constant (Kd) is 0.23 nM.

“wild-type chicken interleukin-1β (ligand)”: the dissociation constant (Kd) worked out at 0.12 nM.

For orientation: Kd means a measure of binding affinity in units of concentration.
